± gives the uncertainty stated by the source.
Experiment: self-splicing fitness, log relative to wild type (ln ratio); higher = more splicing; Tetrahymena group I intron in knt gene, E. coli kanamycin selection, DiMSum; sequences stand for … in CUCUCU…GGAGGGAAAAGUUAUCAGGCAUGCACCUGGUAGCUAGUCUUUAAACCAAUAGAUUGCAUCGGUUUAAAAGGCAAGACCGUCAAAUUGCGGGAAAGGGGUCAACAGCCGUUCAGUACCAAGUCUCAGGGGAAACUUUGAGAUGGCCUUGCAAAGGGUAUGGUAAUAAGCUGACGGACAUGGUCCUAACCACGCAGCCAAGUCCUAAGUCAACAGAUCUUCUGUUGAUAUGGAUGCAGUUCACAGACUAAAUGUCGGUCGGGGAAGAUGUAUUCUUCUCAUAAGAUAUAGUCGGACCUCUCCUUAAUGGGAGCUAGCGGAUGAAGUGAUGCAACACUGGAGCCGCUGGGAACUAAUUUGUAUGCGAAAGUAUAUUGAUUAGUUUUGGAGUACUCGUGGUCG
In short: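 Colonies from six replicate transformations of E. coli BL21(DE3) were pooled and amplicon-sequenced on an Illumina HiSeq 2500. The library placed an intron with all eight P1ex-region nucleotides randomised inside the knt kanamycin-resistance gene on pET-22b(+), and cells grew overnight at 37°C or 30°C on LB agar with or without 25 μg/mL kanamycin (plus 100 μg/mL carbenicillin, 50 μM IPTG, 0.2% rhamnose). Fitness is the DiMSum error-weighted combination of wild-type-normalised replicate fold changes, kanamycin versus none.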

Row | Sequence | self-splicing fitness (ln) (30 °C) | self-splicing fitness (ln) (37 °C)
1 | GAGCAGCAAUAUUACGUUCG | -1.51 ± 0.097 | -0.474 ± 0.098
2 | CAUUAGCAAUAUUACGUGCG | -0.965 ± 0.074 | -0.237 ± 0.082
3 | GGCUAGCAAUAUUACGAGUA | -1.59 ± 0.13 | -0.404 ± 0.13
4 | AAGAAGCAAUAUUACGUUUU | -3.3 ± 0.11 | -1.33 ± 0.091
5 | GCGAAGCAAUAUUACGUCGG | -2.61 ± 0.21 | -0.565 ± 0.25
6 | AUCUAGCAAUAUUACGCUAA | -2.07 ± 0.12 | -0.871 ± 0.12
7 | GAAGAGCAAUAUUACGGCAC | -1.31 ± 0.12 | -0.934 ± 0.16
8 | GAUGAGCAAUAUUACGGUCC | -3.29 ± 0.2 | -2.27 ± 0.36
9 | GUGAAGCAAUAUUACGAAUG | -0.846 ± 0.075 | -0.708 ± 0.11
10 | CGGGAGCAAUAUUACGGGCG | -2.44 ± 0.31 | -2.67 ± 0.41
11 | UUUAAGCAAUAUUACGUGCU | -3.09 ± 0.18 | -1.41 ± 0.15
12 | UGAGAGCAAUAUUACGCUAC | -2.4 ± 0.49 | 
13 | CGUGAGCAAUAUUACGAUGU | -1.56 ± 0.16 | -2.29 ± 0.25
14 | AUUUAGCAAUAUUACGACUU | -0.092 ± 0.059 | 0.239 ± 0.067
15 | GUCAAGCAAUAUUACGGGCG | -3.08 ± 0.17 | -0.583 ± 0.13
16 | CCUCAGCAAUAUUACGCGAG | -2.89 ± 0.1 | -1.76 ± 0.11
17 | GCACAGCAAUAUUACGGCUC | -0.268 ± 0.071 | 0.523 ± 0.076
18 | UAGCAGCAAUAUUACGCAUU | -2.38 ± 0.13 | -1.08 ± 0.11
19 | UCUCAGCAAUAUUACGUGUU | -3.47 ± 0.14 | -2.73 ± 0.15
20 | UCGUAGCAAUAUUACGAAGG | -3.63 ± 0.47 | 
21 | GCUGAGCAAUAUUACGCGUA |  | -2.23 ± 0.37
22 | UCCUAGCAAUAUUACGGUAU | -3.23 ± 0.16 | -1.76 ± 0.18
23 | GCACAGCAAUAUUACGACGA | -0.897 ± 0.13 | 0.243 ± 0.15
24 | UACAAGCAAUAUUACGGAAU | -3.62 ± 0.24 | -2.44 ± 0.25
25 | AACUAGCAAUAUUACGAGUC | -3.83 ± 0.33 | -1.77 ± 0.19

Row | Sequence | self-splicing fitness (ln) (30 °C) | self-splicing fitness (ln) (37 °C)
26 | UCGUAGCAAUAUUACGGCGU | -3.46 ± 0.34 | -1.6 ± 0.22
27 | ACCGAGCAAUAUUACGCAUC | -1.14 ± 0.17 | 
28 | ACCCAGCAAUAUUACGAAAU | -1.42 ± 0.07 | -1.21 ± 0.083
29 | CGUGAGCAAUAUUACGAUCC | -2.65 ± 0.25 | -0.358 ± 0.25
30 | UUGUAGCAAUAUUACGAUCG | -1.06 ± 0.14 | 0.103 ± 0.23
31 | CCUAAGCAAUAUUACGUUCC | -3.6 ± 0.3 | -1.8 ± 0.34
32 | AUUUAGCAAUAUUACGCACA | -0.136 ± 0.093 | -0.202 ± 0.095
33 | CACGAGCAAUAUUACGGCUU | -3.77 ± 0.24 | -3.16 ± 0.29
34 | GUAAAGCAAUAUUACGCUAA | -1.65 ± 0.087 | -0.135 ± 0.11
35 | UGAAAGCAAUAUUACGCGGG | -2.8 ± 0.13 | -0.83 ± 0.11
36 | ACCCAGCAAUAUUACGUGCC | -1.98 ± 0.08 | -0.963 ± 0.1
37 | UAACAGCAAUAUUACGGGCC | -3.47 ± 0.26 | -2.98 ± 0.26
38 | AUAGAGCAAUAUUACGGGAC | -2.71 ± 0.18 | -2.36 ± 0.27
39 | GCCCAGCAAUAUUACGUGUU | -0.583 ± 0.042 | -0.217 ± 0.054
40 | UCGUAGCAAUAUUACGAAUG | -2.01 ± 0.29 | 
41 | AUGUAGCAAUAUUACGGAAC |  | -1.16 ± 0.41
42 | GUCCAGCAAUAUUACGACGG | -3.49 ± 0.2 | -2.66 ± 0.23
43 | UUUCAGCAAUAUUACGAGAG | -1.8 ± 0.069 | -1.91 ± 0.088
44 | CGUGAGCAAUAUUACGAUCU | -0.613 ± 0.088 | -0.995 ± 0.14
45 | GAGGAGCAAUAUUACGCGUC |  | -1.75 ± 0.38
46 | CCCAAGCAAUAUUACGCCGG | -3.22 ± 0.29 | -2.35 ± 0.32
47 | GAAAAGCAAUAUUACGUGUG | -2.31 ± 0.062 | -1.06 ± 0.072
48 | CGGUAGCAAUAUUACGCCUG | -1.32 ± 0.13 | -0.225 ± 0.11
49 | CUAUAGCAAUAUUACGUAGC | -4.05 ± 0.31 | -3.11 ± 0.43
50 | GCUCAGCAAUAUUACGGGCC | -2.8 ± 0.2 | -3.37 ± 0.25

Row | Sequence | self-splicing fitness (ln) (30 °C) | self-splicing fitness (ln) (37 °C)
51 | CGGAAGCAAUAUUACGCCUC | -3.04 ± 0.27 | -2.89 ± 0.4
52 | UAACAGCAAUAUUACGGGUU | -3.91 ± 0.15 | -3.58 ± 0.19
53 | CAAAAGCAAUAUUACGGUGG | -1.13 ± 0.052 | -0.335 ± 0.073
54 | CAAGAGCAAUAUUACGCACC | -3.75 ± 0.35 | 
55 | CCAAAGCAAUAUUACGGCAG | -0.931 ± 0.074 | -0.49 ± 0.11
56 | CCGUAGCAAUAUUACGGAAG | -1.47 ± 0.17 | -2.34 ± 0.41
57 | GCCCAGCAAUAUUACGUAAA | -0.596 ± 0.06 | -0.718 ± 0.097
58 | UCCAAGCAAUAUUACGAGAA | -0.789 ± 0.16 | -0.569 ± 0.17
59 | CUCGAGCAAUAUUACGUGCC | -3.35 ± 0.35 | 
60 | CAACAGCAAUAUUACGGCGU | -2.15 ± 0.091 | -0.0717 ± 0.092
61 | AUAAAGCAAUAUUACGUUGC | -3.81 ± 0.19 | -3.29 ± 0.29
62 | CAAUAGCAAUAUUACGUACC | -4.73 ± 0.32 | -3.09 ± 0.32
63 | CGAGAGCAAUAUUACGCUAC |  | -2.11 ± 0.4
64 | CGCUAGCAAUAUUACGUGCG | -3.74 ± 0.26 | -2.4 ± 0.22
65 | AUACAGCAAUAUUACGUUUC | -3.38 ± 0.19 | -1.49 ± 0.2
66 | ACUAAGCAAUAUUACGUGUU | -3.63 ± 0.1 | -2.2 ± 0.098
67 | ACGGAGCAAUAUUACGUCUC | -4.93 ± 0.32 | -1.94 ± 0.15
68 | CUCCAGCAAUAUUACGCGGC | -1.8 ± 0.26 | -2.08 ± 0.39
69 | UUGAAGCAAUAUUACGGUAC | -2.04 ± 0.22 | -2.44 ± 0.31
70 | AUAGAGCAAUAUUACGGGGA |  | -2.44 ± 0.28
71 | AGACAGCAAUAUUACGGUAG | -3.97 ± 0.22 | -0.604 ± 0.092
72 | CCCUAGCAAUAUUACGUUAA | -3.42 ± 0.18 | -3.16 ± 0.29
73 | AUCCAGCAAUAUUACGAUUC | -1.5 ± 0.11 | -0.86 ± 0.12
74 | UAGUAGCAAUAUUACGCUCA | -0.29 ± 0.13 | 0.69 ± 0.15
75 | UUUUAGCAAUAUUACGGUAG | -1.6 ± 0.18 | -1.74 ± 0.16

Row | Sequence | self-splicing fitness (ln) (30 °C) | self-splicing fitness (ln) (37 °C)
76 | UAAUAGCAAUAUUACGGUGC |  | -1.98 ± 0.36
77 | CCAUAGCAAUAUUACGUCUU | -3.12 ± 0.15 | -2.56 ± 0.17
78 | UCCCAGCAAUAUUACGCGCG | -3.27 ± 0.17 | -2.98 ± 0.24
79 | CGACAGCAAUAUUACGUAAG | -0.425 ± 0.08 | 0.126 ± 0.095
80 | AGAAAGCAAUAUUACGGCCU | 0.484 ± 0.11 | 0.212 ± 0.12
81 | UUCCAGCAAUAUUACGAGGA | -1.83 ± 0.19 | -0.64 ± 0.22
82 | CGCCAGCAAUAUUACGCGAC | -3.18 ± 0.21 | -2.15 ± 0.17
83 | CGCGAGCAAUAUUACGCAUA | -1.87 ± 0.32 | -2.14 ± 0.43
84 | UCCAAGCAAUAUUACGAGAG | -2.32 ± 0.12 | -1.85 ± 0.14
85 | CCGAAGCAAUAUUACGCUCU | -3.24 ± 0.4 | 
86 | CGCUAGCAAUAUUACGUAUU | -3.85 ± 0.21 | -1.9 ± 0.18
87 | AUCAAGCAAUAUUACGUCUA | -0.821 ± 0.073 | -0.438 ± 0.076
88 | AUACAGCAAUAUUACGGUCC | -1.18 ± 0.097 | 0.135 ± 0.11
89 | GCUUAGCAAUAUUACGGACG | -1.15 ± 0.13 | 0.122 ± 0.18
90 | AAUGAGCAAUAUUACGGCUA | -2.14 ± 0.24 | -0.372 ± 0.16
91 | UAUUAGCAAUAUUACGAUGG | -1.24 ± 0.094 | -0.174 ± 0.11
92 | GUAGAGCAAUAUUACGGUGC | -1.15 ± 0.13 | -1 ± 0.19
93 | GACUAGCAAUAUUACGAAGG | -2.64 ± 0.17 | -1.87 ± 0.18
94 | AAACAGCAAUAUUACGGGCU | -3.15 ± 0.12 | -1.95 ± 0.13
95 | UCCCAGCAAUAUUACGACGU | -1.53 ± 0.071 | -0.16 ± 0.084
96 | GAAGAGCAAUAUUACGCGAG | -2.82 ± 0.17 | -2.16 ± 0.23
97 | GGCUAGCAAUAUUACGUCGU | 0.26 ± 0.075 | 0.153 ± 0.092
98 | CGAAAGCAAUAUUACGGCCG | -1.64 ± 0.14 | -0.462 ± 0.21
99 | GCACAGCAAUAUUACGUAUC | -0.923 ± 0.061 | -0.833 ± 0.066
